Km and kcat data for four compounds are collected here from article PMC12771579, “Distinct classes of gut bacterial molybdenum-dependent enzymes produce urolithins” (Proceedings of the National Academy of Sciences of the …, 2025).

What is called Km is the concentration of substrate that gives half-maximal velocity. In general, kcat refers to the maximal rate divided by the concentration of active sites.

Common to all, as to assay: continuous absorbance assay, methyl viologen, initial rates
Common to all, as to conditions: 200 µM methyl viologen, 100 µM sodium dithionite, 20 mM MOPS, 300 mM NaCl, pH 7.0, 30 °C, anaerobic

In data set [1] the test system is T1, O=c1oc2c(O)c(O)ccc2c2c(O)c(O)c(O)cc12.
T1 construct: recombinant, cumate-inducible expression in G. urolithinfaciens (called native host), purified anaerobically; bis-MGD enzyme without signal peptide; tag only in SI
In kind it is biochemical, Gordonibacter urolithinfaciens.

The subject of data set [2] is T2, O=c1oc2cc(O)ccc2c2c(O)c(O)c(O)cc12.
T2 construct: recombinant, cumate-inducible expression in G. urolithinfaciens (called native host), purified anaerobically; bis-MGD enzyme without signal peptide; tag only in SI
In kind it is biochemical, Gordonibacter urolithinfaciens.

In a further data set the test system is T3, Eadh3.
T3 construct: recombinant, expressed in G. urolithinfaciens, purified; bis-MGD enzyme without signal peptide; tag only in SI
The data set is classed as biochemical, Ellagibacter isourolithinifaciens. The text has this:
continuous absorbance assay, methyl viologen, initial rates on Eadh3 | Eadh3 converted urolithin C to isourolithin A via C8-OH dehydroxylation | urolithin M6 was metabolized more readily by Eadh2 than by Eadh3

Data set [3] relates to T1, O=c1oc2c(O)c(O)ccc2c2c(O)c(O)c(O)cc12. In kind it is biochemical, Gordonibacter urolithinfaciens. The text has this: continuous absorbance assay, methyl viologen, initial rates on Eadh1 | Eadh1 (C4-OH dehydroxylation of urolithin M5 to urolithin M6) | can accept urolithin D as a substrate to produce urolithin C
The source holds these as a separate data set.

For Eadh2 (Gordonibacter sp. 28C), in data set [1], the Michaelis constant (Km) came out at 34.1 ± 6.4 µM and the kcat turned out to be 0.42 ± 0.02 s⁻¹. Besides, in data set [2], the Km is recorded as 13.8 ± 2.9 µM and the kcat was determined as 0.65 ± 0.03 s⁻¹.

As for `O=c1oc2cc(O)ccc2c2c(O)c(O)c(O)cc12` [urolithin M6], in the data set with Eadh3, the Km was 78.4 ± 10.6 µM.

Eadh1 (Gordonibacter sp. 28C): in data set [3], the Km worked out at 11.8 ± 2.5 µM and the kcat was 8.60 ± 0.49 s⁻¹.

In the case of `O=c1oc2cc(O)ccc2c2cc(O)c(O)cc12` [urolithin C], the Km with Eadh3 worked out at 19.9 ± 2.1 µM.
